We go through 1 molecule from US20170173114A1, “METHODS AND COMPOSITIONS FOR INDUCTION OF UCP1 EXPRESSION” (Joslin Diabetes Center, Inc., priority 2014, published 2017).

The subject of assay [1] is WT-1 brown preadipocytes. Nature of the assay: Cell proliferation (MTT assay) in WT-1 brown preadipocytes. The class given is cell-based, murine. The conditions noted are these: 200 ng/ml; 24 and 72 hours. On the procedure:
FIGS. 4A-4C graphically depict FGF6 induction of UCP1 expression in brown preadipocytes in a dose-dependent and time-regulated manner. Specifically, FIG. 4A depicts a dose-response curve of UCP1 expression by FGF6 at day 7. Numbers above curve indicate fold-increase relative to vehicle control. FIG. 4B depicts the fold-induction of UCP1 by vehicle control (“C”), FGF6 (“F6”) or FGF21 (“F21”) within 24 hours of treatment. FIG. 4C depicts a time-course of UCP1 expression induced by 200 ng/ml of FGF6, compared with cells differentiated in regular induction media. Numbers above curves indicate fold-induction relative to day 0. FIG. 4D depicts the effect of FGF6 on cell proliferation (measured by MTT assay) at 24 and 72 hours.
The effect of FGF6 on cell proliferation was also evaluated.
On the technique in general: Tetrazolium assays rely on reduction of a dye to a coloured formazan, in cell work by metabolically active cells.

In another assay the test system is UCP1 and PTGS2. Briefly: UCP1 and PTGS2 mRNA in WT-1 cells undergoing adipocyte differentiation. The conditions noted are these: after induction media; 200 ng/mL FGF or 3.3 nM BMP7, 2 days. The format is cell-based, murine. On the procedure:
In a separate experiment investigating the ability of FGF proteins to induce UCP1 expression in cells undergoing adipocyte differentiation, WT-1 preadipocyte cells were differentiated by culturing in growth media supplemented with insulin (20 nM) and triiodothyronine (T3, 1 nM) for 3 days, followed by incubation in an induction media (growth medium supplemented 20 nM insulin, 1 nM T3, 0.5 mM isobutyl-methylxanthine, 5 μM dexamethasone) for 2 days. The cell were then exposed to BMP7 (3.3 nM) or 200 ng/mL of FGF2, FGF6 or, FGF9 in growth media supplemented with insulin (20 nM) and triodothyronine (T3, 1 nM) for 2 additional days. Cells were harvested and UCP1 and PTGS2 mRNA expression levels were determined according to the quantitative RT-PCR assay described above. Experiments were performed in triplicate and the data presented as mean+/−SEM.

Assay [2] relates to WT-1 brown preadipocytes. Nature of the assay: 2-deoxy-[3H]glucose uptake in WT-1 brown preadipocytes. The class given is cell-based, murine. The conditions noted are these: FGF6 overexpressing vs control and EGF. On the procedure: The following glucose uptake assay was used to determine whether FGF6 could impact cellular glucose uptake. Specifically, glucose uptake was monitored in WT-1 brown preadipocytes and 3T3-F442A white preadipocytes in the presence or absence of FGF6. After serum starvation in DMEM/H medium containing 1% of BSA for 2-3 h, cells were washed with HEPES buffer and then incubated with or without 100 nM insulin for 30 min in DMEM/H medium containing 1% of BSA. Glucose transport was determined by the addition of 2-deoxy-[3H]glucose (0.1 mM, 0.5 μCi/mL; PerkinElmer Life and Analytical Science, Waltham, Mass.). After 5 minutes of incubation, the reaction was stopped by ice-cold PBS and cells were washed twice with ice-cold PBS. Cells were then lysed in 0.1% SDS, and glucose uptake was assessed in 4 mL of scintillant using Beckman LS6500 scintillation counter (Beckman Coulter, Indianapolis Ind.). Nonspecific 2-deoxy-[3H]glucose uptake was measured in the presence of cytochalasin B (20 μM) and was subtracted from the total uptake to get specific glucose uptake. Results were expressed as the mean±s.e.m. of the indicated number of experiments. The protein content was determined by the Bradford method.
The role of PGs in regulating mitochondrial function and cellular glucose uptake was also assessed. […]

For a further assay, the system named is mature brown adipocytes. Briefly: Oxygen consumption rate in mature brown adipocytes (Seahorse). The format is cell-based. The conditions noted are these: 24 hours; vs buffer. On the procedure:
To assess mitochondrial respiration, a Seahorse Extracellular Flux Analyzer (Seahorse Bioscience Inc., North Billerica, Mass.) was used to quantify oxygen consumption rates (OCR) of differentiated […] brown adipocytes. Wt-1 brown preadipocyte cells were seeded on 24-well format plates and allowed to adhere overnight. After adipogenic induction for 8 days, OCR was analyzed. To measure OCR […] oxidative phosphorylation, 0.5 μM oligomycin (EMD Chemicals Inc., Gibbstown, N.J.) was added to cells. Subsequently, 0.8 μM FCCP (carbonyl cyanide-p-trifluoromethoxyphenylhydrazone) and 1 μM respiratory chain inhibitors (rotenone) were added to measure maximal respiration and basal rates of nonmitochondrial respiration. As shown in FIGS. 23A and 23B, treatment of FGF6 enhanced oxygen consumption and glucose uptake in mature brown adipocytes. Thus, FGF6 was able to activate the mature brown adipocyte's ability to use glucose and increase energy expenditure without inducing UCP-1.

For the next assay, the system named is LDHA, PDK1, PKM2. Nature of the assay: LDHA, PDK1 and PKM2 mRNA expression in WT-1 cells. The format is cell-based, murine. The conditions noted are these: WT-1, 24 hours; vs vehicle. How it is done:
To test the role of specific prostaglandins (PGs) in activating UCP1 expression, WT-1 brown adipocytes were pretreated with PGE2, PGI2 and FGF6 for 24 hours. mRNA expression levels of UCP1, PTGS2, LDHA, PDK1 and PKM2 were then measured.

B1: FGF6: fibroblast growth factor 6; recombinant human FGF from R&D Systems, or mouse FGF6 cDNA overexpressed by lentiviral vector (protein)
chain: KRQRRLYCNVGIGFHLQVLPDGRISGTHEENPYSLLEISTVERGVVSLFGVRSALFVAMNSKGRLYATPSFQEECKFRETLLPNNYNAYESDLYQGTYIALSKYGRVKRGSKVSPIMTVTHFLPRI
Take B1: in the assay on WT-1 brown preadipocytes [1], the “effect on cell proliferation” value is recorded as “virtually no effect”. For the same molecule, in the assay with UCP1 and PTGS2, the “PTGS2 mRNA expression in cells undergoing adipocyte differentiation” value is listed as “able to induce” and the “UCP1 mRNA expression in cells undergoing adipocyte differentiation” value is on record as “able to induce”. Further, the “glucose uptake level in WT-1 (brown) preadipocytes” value in the assay with WT-1 brown preadipocytes [2] is “increased”. For the same molecule, the “oxygen consumption in mature brown adipocytes” value with mature brown adipocytes was “enhanced”. Also, in the assay on LDHA, PDK1, PKM2, the “LDHA mRNA expression” value is “increase”, the “PDK1 mRNA expression” value is given as “increase” and the “PKM2 mRNA expression” value is “increase”.
